Laboratory results: publication PMC7736850, “Hemistepsin A suppresses colorectal cancer growth through inhibiting pyruvate dehydrogenase kinase activity” (Scientific Reports, 2020)

Experiments:
[1] = target: T1, pyruvate dehydrogenase kinase (PDK) 1 (Homo sapiens, UniProt Q15118); experiment: isothermal titration calorimetry (ITC); type: binding
T1 construct: gene PDK1

[2] = target: Pyruvate dehydrogenase kinase 1 (PDK1) protein (UniProt Q15118); experiment: ITC; PDK1 protein with the lipoamide-binding domains of PDH-E2 (L1, L2), in the presence of hemistepsin A (HsA); conditions not told in the main text
[3] = target: Pyruvate dehydrogenase kinase 1 (PDK1) protein (UniProt Q15118); experiment: ITC; PDK1 protein with the lipoamide-binding domains of PDH-E2 (L1, L2), without HsA; conditions not told in the main text

Pyruvate dehydrogenase kinase 1 (PDK1) protein, sequence (Q15118 29-436): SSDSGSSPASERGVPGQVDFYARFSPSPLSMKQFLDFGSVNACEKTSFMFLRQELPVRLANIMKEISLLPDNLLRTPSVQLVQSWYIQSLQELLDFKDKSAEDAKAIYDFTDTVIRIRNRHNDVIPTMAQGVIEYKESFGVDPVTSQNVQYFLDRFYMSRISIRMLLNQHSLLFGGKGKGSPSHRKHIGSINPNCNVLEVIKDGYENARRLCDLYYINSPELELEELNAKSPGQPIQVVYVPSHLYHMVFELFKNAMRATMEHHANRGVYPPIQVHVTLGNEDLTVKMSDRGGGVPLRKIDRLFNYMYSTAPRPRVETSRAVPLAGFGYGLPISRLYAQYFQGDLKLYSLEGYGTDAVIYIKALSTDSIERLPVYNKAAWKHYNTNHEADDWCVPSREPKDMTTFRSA
T1 sequence (Q15118 29-436): as above

Kd [1] [µM] | Kd [2] [µM] | Kd [3] [µM] | Compound
22 |  |  | C=C(CO)C(=O)OC1C2C(=C)C(=O)OC2CC(=C)C2CC(O)C(=C)C21 (centres unmarked) [HsA, Hemistepsin A]
 | 43.1 | 41.1 | L1 lipoamide-binding domain of the PDH complex E2 subunit (PDH-E2) (domain or fragment)
 | 41 | 30 | L2 lipoamide-binding domain of the PDH complex E2 subunit (PDH-E2) (domain or fragment)
